From US20210347908A1 (ELPISCIENCE SUZHOU BIOPHARMA, published 2021)
Where two headings read alike, the source gives them in different places.

Tests used:
[1] = biological target: T1, Fc tagged human SIRPγ ECD recombinant protein (human, UniProt Q9P1W8 29-360); assay: ELISA
T1 construct: range 1-360; cloned range includes the signal peptide; also called hSIRPγ; not shown: human IgG Fc region (hFc) of the pCPC vector
Outline: (§1)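 Binding is reported as EC₅₀ from absorbance at 450 nm. Antibodies (hybridoma-derived or chimeric) are incubated with plate-coated antigen at 37° C. for 1 hour, followed by an HRP-conjugated anti-IgG secondary under the same conditions and TMB substrate.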

[2] = biological target: T1, Fc tagged human SIRPγ ECD recombinant …; assay: ELISA; remark: listed apart in the source
Outline: as §1

[3] = biological target: T2, full length cyno SIRPα stably expressed on CHOK1 cells (cynomolgus monkey, UniProt A0A2K5VYQ9 31-507); assay: FACS on CHOK1 cells
T2 construct: whole, on cells; also called CHOK1-cyno SIRPα-2A2 cells; CHOK1-cyno SIRPα
T2 sequence: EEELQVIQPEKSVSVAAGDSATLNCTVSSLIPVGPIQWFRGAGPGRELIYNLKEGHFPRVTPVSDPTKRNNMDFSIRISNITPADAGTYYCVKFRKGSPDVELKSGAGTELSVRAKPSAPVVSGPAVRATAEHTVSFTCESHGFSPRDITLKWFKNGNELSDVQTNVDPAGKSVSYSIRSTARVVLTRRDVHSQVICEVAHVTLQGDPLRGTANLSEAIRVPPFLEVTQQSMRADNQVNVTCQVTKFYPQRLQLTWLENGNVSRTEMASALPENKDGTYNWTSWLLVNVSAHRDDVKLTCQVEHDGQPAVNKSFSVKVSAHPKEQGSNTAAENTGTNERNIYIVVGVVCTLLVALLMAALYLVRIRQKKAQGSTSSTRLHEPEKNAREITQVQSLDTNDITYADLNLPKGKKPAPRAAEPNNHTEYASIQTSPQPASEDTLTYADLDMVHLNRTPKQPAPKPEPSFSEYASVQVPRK
Outline: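 Antibodies bound to 2×10⁵ CHOK1 cells stably expressing full-length SIRPα, 1 h at 4 °C, then fluorescent anti-mouse or anti-human IgG secondary, 1 h at 4 °C. EC50 derived from geometric median fluorescence intensity.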

[4] = biological target: T3, Fc tagged human SIRPα v1 ECD recombinant protein (human, UniProt P78324 31-370); assay: ELISA
T3 construct: range 1-370; cloned range M1-R370 includes the signal peptide; also called hSIRPα V1; not shown: human IgG Fc region (hFc) of the pCPC vector
Method: (§2) Binding specificity of the purified hybridoma antibodies against SIRP family members was detected by ELISA assay using recombinant proteins of Fc tagged human SIRPα v1 ECD, human SIRPα v2 ECD, human SIRPβ ECD and human SIRPγ ECD. Briefly the antibodies were incubated with ELISA microplate coated antigens at 37° C. for 1 hour. After washing, horseradish peroxidase (HRP) labeled anti-mouse or anti-human IgG 2nd Ab (Sigma) was added and incubated at 37° C. for 1 hour. Then, 100 μl/well of TMB solution (Biotechnology) was added. After incubation for 15 minutes at room temperature, the reaction was stopped by the addition of 50 μl of 1N HCl. OD 450 nm was read and EC₅₀ was calculated. Other than 060 and HEFLB, all of the antibodies as tested can bind with both human SIRPα v1 and SIRPα v2. 060 and HEFLB can bind with human SIRPα v1 but not v2. Other than 055, all of the antibodies as tested can bind with human SIRPβ. In comparison with other known anti-SIRPα antibodies, only 022, 035 and 050 can bind with human SIRPγ weakly.

[5] = biological target: T4, Fc tagged human SIRPα v2 ECD recombinant protein (human); assay: ELISA
T4 construct: range 1-369; cloned range M1-R369 includes the signal peptide; also called hSIRPα V2
Method: as §2

[6] = biological target: T5, Fc tagged human SIRPβ ECD recombinant protein (human, UniProt O00241 30-371); assay: ELISA
T5 construct: range 1-371; cloned range includes the signal peptide; also called hSIRPβ; not shown: human IgG Fc region (hFc) of the pCPC vector
Method: as §2

[7] = biological target: T1, Fc tagged human SIRPγ ECD recombinant …; assay: ELISA; remark: listed apart in the source
Method: as §2

[8] = biological target: T6, biotin labeled soluble human SIRPα v1 ECD recombinant protein (human, UniProt P78324 31-373, biotin labeled); assay: competitive ELISA; competitor 022
T6 construct: extracellular domain
Method: (§3) Competitive ELISA assay was used for epitope binning of 9 functional antibodies. Briefly excessive competitor antibody and biotin labeled soluble human SIRPα v1 ECD recombinant protein were co-incubated with ELISA microplate coated antibody. After washing, HRP-SA was added and incubated at 37° C. for 1 hour. Then, […] of TMB solution (Biotechnology) was added. After incubation for 15 minutes at room temperature, the reaction was stopped by the addition of […] of 1N HCl. OD 450 nm was read. Competition ratio was calculated. The antibodies that can compete each other for binding to SIRPα have the similar binding epitope.

[9] = biological target: T6, biotin labeled soluble human SIRPα v1 …; assay: competitive ELISA; competitor 032
Method: as §3

[10] = biological target: T1, Fc tagged human SIRPγ ECD recombinant …; assay: competitive ELISA, biotin-CD47 ECD to coated SIRPγ ECD
Method: For CD47 and SIRPγ interaction blocking activity detection, antibody and biotin labeled soluble human CD47 ECD recombinant protein were co-incubated with ELISA microplate coated human SIRPγ ECD recombinant protein. After washing, horseradish peroxidase labeled streptavidin (HRP-SA, Sigma) was added and incubated at 37° C. for 1 hour. Then, 100 μl/well of TMB solution (Biotechnology) was added. After incubation for 15 minutes at room temperature, the reaction was stopped by the addition of 50 μl of 1N HCl. OD 450 nm was read. Blocking ratio and IC₅₀ was calculated. In comparison with other known anti-SIRPα antibodies, 022, 050, 055, and 074 cannot block CD47 and SIRPα interaction. In particular, all of the antibodies of the invention cannot block CD47 and SIRPγ interaction.

B1: chimeric antibody 022c (antibody, V domains shown)
VH: QIQLVQSGPELKKPGETVKISCKASGYTFTDYAMHWVKQAPGKGLKWMGWKNTETGESTYAEDFKGRFAFFLETSASTAYLQINNVKNEDTATYFCARGGYGSNYVMDYWGQGTSVIVSS
VL: DIQMTQSSSSFSVSLGDRVTITCKASEDIYNRLAWYQQKPGNAPRLLISGATSLETGVPSRFSGSGSGKDYTLSITSLQTEDVATYYCQQYWNSPRTFGGGTKLEIK
B1 was tested, and the EC50 [1] was 18.7 nM, the EC50 [2] was 18.7 nM and the “MFI at 10 nM” value [3] was 23500 MFI.

B2: Antibody 022 (hybridoma antibody) (antibody, V domains shown)
VH: QIQLVQSGPELKKPGETVKISCKASGYTFTDYAMHWVKQAPGKGLKWMGWKNTETGESTYAEDFKGRFAFFLETSASTAYLQINNVKNEDTATYFCARGGYGSNYVMDYWGQGTSVIVSS
VL: DIQMTQSSSSFSVSLGDRVTITCKASEDIYNRLAWYQQKPGNAPRLLISGATSLETGVPSRFSGSGSGKDYTLSITSLQTEDVATYYCQQYWNSPRTFGGGTKLEIK
notes: mouse hybridoma antibody
Work on B2 yielded an EC50 [4] of 0.04 nM, an EC50 [5] of 0.04 nM and an EC50 [6] of 0.03 nM. For the same binder, the EC50 [7] was 0.76 nM, the “% Competition” value [8] was 81% and the “% Competition” value [9] was 4%.

B3: chimeric antibody 035c (antibody, V domains shown)
VH: QIQLVQSGPELRKPGETVKISCKASGYSFTNYAMNWVKQAPGKVLKWMGFINTYTGEPTYADDFKGRFAFSLETSASTAYLQINNLKNEDTATYFCTRTRGYYDFDGGAFDYWGQGTSLTVSS
VL: DIVMTQSQKFMSTSIGDRVSVTCKASQNVGTHLAWYQQKPGQSPKALIFSASYRYIGVPDRFTGSGSGTDFTLTITNVQSEDLAEYFCQQYNTYPLTFGAGTKLELK
B3 was tested, and the EC50 [1] was 6.11 nM, the EC50 [2] was 6.11 nM and the “MFI at 10 nM” value [3] was 24600 MFI.

B4: chimeric antibody 050c (antibody, V domains shown)
VH: QIQLVQSGPELKKPGETVKISCKASGYTFTHYSMHWVKQAPGKGLKWMGWINTETAEPTYVDDFKGRFAFSLEASASTAFFQINNLKNEDTATYFCARGGLRQGDYWGQGTTLTVSS
VL: QIVLTQSPPIMSASPGEKVTLTCSATSSVSASYLYWFQQKPGSSPKLWIYSTSNLASGVPARFSGSGSGTSYSLTISNMEPADAASYFCHQWSSYPYTFGGGTKLEIK
For B4, the EC50 [1] was 0.27 nM, the EC50 [2] was 0.27 nM and the “MFI at 10 nM” value [3] was 20500 MFI.

B5: Antibody 050 (hybridoma antibody) (antibody, V domains shown)
VH: QIQLVQSGPELKKPGETVKISCKASGYTFTHYSMHWVKQAPGKGLKWMGWINTETAEPTYVDDFKGRFAFSLEASASTAFFQINNLKNEDTATYFCARGGLRQGDYWGQGTTLTVSS
VL: QIVLTQSPPIMSASPGEKVTLTCSATSSVSASYLYWFQQKPGSSPKLWIYSTSNLASGVPARFSGSGSGTSYSLTISNMEPADAASYFCHQWSSYPYTFGGGTKLEIK
notes: mouse hybridoma antibody
Work on B5 yielded an EC50 [4] of 0.08 nM, an EC50 [5] of 0.08 nM and an EC50 [6] of 0.11 nM. For the same binder, the EC50 [7] was 0.38 nM, the “% Competition” value [8] was 79% and the “% Competition” value [9] was 8%.

B6: reference antibody KWAR23 (antibody, V domains shown)
VH: EVQLQQSGAELVKPGASVKLSCTASGFNIKDYYIHWVQQRTEQGLEWIGRIDPEDGETKYAPKFQDKATITADTSSNTAYLHLSSLTSEDTAVYYCARWGAYWGQGTLVTVSS
VL: QIVLTQSPAIMSASPGEKVTLTCSASSSVSSSYLYWYQQKPGSSPKLWIYSTSNLASGVPARFSGSGSGTSYSLTISSMEAEDAASYFCHQWSSYPRTFGAGTKLELK
With B6 the EC50 [4] was 0.17 nM, the EC50 [5] was 0.22 nM and the EC50 [6] was 0.18 nM. For the same binder, the EC50 [7] was 0.15 nM, the EC50 [1] was 0.05 nM and the EC50 [2] was 0.05 nM. The “% Competition” value [8] was 6%, the “% Competition” value [9] was 82% and the IC50 [10] was 1 nM.

B7: reference antibody 29-AM4-5 (antibody, V domains shown)
VH: EVQLVESGGGLVQPGGSLRLSCAASGFNISYYFIHWVRQAPGKGLEWVASVYSSFGYTYYADSVKGRFTISADTSKNTAYLQMNSLRAEDTAVYYCARFTFPGLFDGFFGAYLGSLDYWGQGTLVTVSS
VL: DIQMTQSPSSLSASVGDRVTITCRASQSVSSAVAWYQQKPGKAPKLLIYSASSLYSGVPSRFSGSRSGTDFTLTISSLQPEDFATYYCQQAVNWVGALVTFGQGTKVEIK
With B7 the EC50 [4] was 0.15 nM, the EC50 [5] was 0.2 nM and the EC50 [6] was 0.21 nM. For the same binder, the EC50 [7] was 0.22 nM, the EC50 [1] was 0.11 nM and the EC50 [2] was 0.11 nM. For the same binder, the “MFI at 10 nM” value [3] was 27600 MFI, the “% Competition” value [8] was 8% and the “% Competition” value [9] was 97%. It also gave an IC50 [10] of 3.4 nM.
